Literature values as cited in paper PMC3924328, “Structure of the S100A4/myosin-IIA complex” (BMC Structural Biology, 2013).

Biological target: myosin-IIA 1904-1927 (Homo sapiens) (UniProt P35579)
Assay: fluorescence anisotropy

Sequence of myosin-IIA 1904-1927 (Homo sapiens) (P35579 1904-1927): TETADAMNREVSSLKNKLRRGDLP
Sequence of S100A4 (P26447 2-101): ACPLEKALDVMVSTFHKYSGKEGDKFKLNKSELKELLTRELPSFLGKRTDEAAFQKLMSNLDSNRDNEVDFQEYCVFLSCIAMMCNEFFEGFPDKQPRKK

For S100A4 (from UniProt P26447), the Kd is listed as 260 nM.
